Measurements from US20160159862A1 (PROTAGONIST THERAPEUTICS, published 2016).
Bridge positions count the residues as written; N and C are the ends. Square brackets hold non-standard residues; d marks the D form. Ends that are not written are not given here. Phe(4-COOH) = N[C@@H](Cc1ccc(C(=O)O)cc1)C(=O)O; Phe(4-tBu) = CC(C)(C)c1ccc(C[C@H](N)C(=O)O)cc1; Bip = N[C@@H](Cc1ccc(-c2ccccc2)cc1)C(=O)O; Phe(4-F) = N[C@@H](Cc1ccc(F)cc1)C(=O)O; 1Nal = N[C@@H](Cc1cccc2ccccc12)C(=O)O; 2Nal = N[C@@H](Cc1ccc2ccccc2c1)C(=O)O; d1Nal = N[C@H](Cc1cccc2ccccc12)C(=O)O; d2Nal = N[C@H](Cc1ccc2ccccc2c1)C(=O)O; NMeR = CN[C@@H](CCCNC(=N)N)C(=O)O; hPhe = N[C@@H](CCc1ccccc1)C(=O)O; Tic = O=C(O)[C@@H]1Cc2ccccc2CN1; Aic = NC1(C(=O)O)Cc2ccccc2C1; NMeK = CN[C@@H](CCCCN)C(=O)O; Pen = CC(C)(S)[C@H](N)C(=O)O; dNMeK = CN[C@H](CCCCN)C(=O)O

Columns and labels:
[1] = target: rh integrin α4β7 (R&D Systems #5397-A30) (human) (UniProt P13612); assay: α4β7-MAdCAM competition ELISA
[2] = target: α4β7 integrin on human cells (human, UniProt P13612 34-1032; P26010 20-798); assay: cell-based or functional assay
[3] = target: α4β1 (R&D Systems #5668-A4) (UniProt P13612); assay: α4β1-VCAM competition ELISA

Binder	IC50 [1] [nM]	α4β7 cell (Hu) IC50 [2] [nM]	IC50 [3] [nM]
Ac-[Pen][NMeR]SDTL[Pen][2Nal][dE][dNMeK]-NH2 (disulfide 1-7 (inferred)) [SEQ ID NO 13]	> 10	> 100	
Ac-[Pen][NMeR]SDTL[Pen][1Nal]E[dK]-NH2 (disulfide 1-7 (inferred); also: homodimer via DIG) [SEQ ID NO 24]	< 10	≤ 10	> 100
Ac-[Pen][NMeR]SDTL[Pen][2Nal]E[NMeK]-NH2 (disulfide 1-7 (inferred); also: homodimer via DIG) [SEQ ID NO 138]	> 10	> 10	
Ac-[Pen][NMeR]SDTL[Pen][1Nal][dE][dK]-NH2 (disulfide 1-7 (inferred)) [SEQ ID NO 8]	> 25		
Ac-[Pen][NMeR]SDTL[Pen]W[Aic][dK]-NH2 (disulfide 1-7; SMILES CC(=O)N[C@@H]1C(=O)N(C)[C@@H](CCCNC(=N)N)C(=O)N[C@@H](CO)C(=O)N[C@@H](CC(=O)O)C(=O)N[C@@H]([C@@H](C)O)C(=O)N[C@@H](CC(C)C)C(=O)N[C@H](C(=O)N[C@@H](Cc2c[nH]c3ccccc23)C(=O)NC2(C(=O)N[C@H](CCCCN)C(N)=O)Cc3ccccc3C2)C(C)(C)SSC1(C)C) [SEQ ID NO 51]	> 25		
Ac-[Pen][NMeR]SDTL[Pen][1Nal]E[dNMeK]-NH2 (disulfide 1-7; SMILES CC(=O)N[C@@H]1C(=O)N(C)[C@@H](CCCNC(=N)N)C(=O)N[C@@H](CO)C(=O)N[C@@H](CC(=O)O)C(=O)N[C@@H]([C@@H](C)O)C(=O)N[C@@H](CC(C)C)C(=O)N[C@H](C(=O)N[C@@H](Cc2cccc3ccccc23)C(=O)N[C@@H](CCC(=O)O)C(=O)N(C)[C@H](CCCCN)C(N)=O)C(C)(C)SSC1(C)C) [SEQ ID NO 18]	> 10		> 500
Ac-[Pen][NMeR]SDTL[Pen][1Nal][dE][dNMeK]-NH2 (disulfide 1-7; SMILES CC(=O)N[C@@H]1C(=O)N(C)[C@@H](CCCNC(=N)N)C(=O)N[C@@H](CO)C(=O)N[C@@H](CC(=O)O)C(=O)N[C@@H]([C@@H](C)O)C(=O)N[C@@H](CC(C)C)C(=O)N[C@H](C(=O)N[C@@H](Cc2cccc3ccccc23)C(=O)N[C@H](CCC(=O)O)C(=O)N(C)[C@H](CCCCN)C(N)=O)C(C)(C)SSC1(C)C) [SEQ ID NO 12]	> 25		
Ac-[Pen][NMeR]SDTL[Pen][2Nal][dE][dK]-NH2 (disulfide 1-7 (inferred)) [SEQ ID NO 9]	> 10	> 100	
Ac-[Pen][NMeR]SDTL[Pen]W[Tic][dK]-NH2 (disulfide 1-7 (inferred); also: dimer via DIG) [SEQ ID NO 109]		> 100	
Ac-[Pen][NMeR]SDTL[Pen][Phe(4-tBu)][dE][dK]-NH2 (disulfide 1-7 (inferred); also: dimer via DIG) [SEQ ID NO 106]		≤ 10	
Ac-[Pen][NMeR]SDTL[Pen][1Nal][dE][dK]-NH2 (disulfide 1-7 (inferred); also: homodimer via DIG linker) [SEQ ID NO 32]	< 10	> 10	> 100
Ac-[Pen][NMeR]SDTL[Pen][1Nal][dE][dNMeK]-NH2 (disulfide 1-7 (inferred); also: homodimer via DIG linker) [SEQ ID NO 38]	< 10	≤ 10	> 100
Ac-[Pen][NMeR]SDTL[Pen][Phe(4-F)][dE][dK]-NH2 (disulfide 1-7 (inferred); also: dimer via DIG) [SEQ ID NO 107]		> 25	
Ac-[Pen][NMeR]SDTL[Pen]W[dH][dK]-NH2 (disulfide 1-7 (inferred); also: dimer via DIG) [SEQ ID NO 104]		> 100	
Ac-[Pen][NMeR]SDTL[Pen]W[Phe(4-COOH)][dK]-NH2 (disulfide 1-7 (inferred); also: dimer via DIG) [SEQ ID NO 105]		> 50	
Ac-[Pen][NMeR]SDTL[Pen][2Nal][hPhe][dK]-NH2 (disulfide 1-7; SMILES CC(=O)N[C@@H]1C(=O)N(C)[C@@H](CCCNC(=N)N)C(=O)N[C@@H](CO)C(=O)N[C@@H](CC(=O)O)C(=O)N[C@@H]([C@@H](C)O)C(=O)N[C@@H](CC(C)C)C(=O)N[C@H](C(=O)N[C@@H](Cc2ccc3ccccc3c2)C(=O)N[C@@H](CCc2ccccc2)C(=O)N[C@H](CCCCN)C(N)=O)C(C)(C)SSC1(C)C) [SEQ ID NO 50]	> 10		
Ac-[Pen][NMeR]SDTL[Pen][2Nal]E[dNMeK]-NH2 (disulfide 1-7; SMILES CC(=O)N[C@@H]1C(=O)N(C)[C@@H](CCCNC(=N)N)C(=O)N[C@@H](CO)C(=O)N[C@@H](CC(=O)O)C(=O)N[C@@H]([C@@H](C)O)C(=O)N[C@@H](CC(C)C)C(=O)N[C@H](C(=O)N[C@@H](Cc2ccc3ccccc3c2)C(=O)N[C@@H](CCC(=O)O)C(=O)N(C)[C@H](CCCCN)C(N)=O)C(C)(C)SSC1(C)C) [SEQ ID NO 15]	< 10		
Ac-[Pen][NMeR]SDTL[Pen][1Nal][dL][dK]-NH2 (disulfide 1-7 (inferred); also: homodimer via DIG) [SEQ ID NO 113]		> 500	
Ac-[Pen][NMeR]SDTL[Pen][2Nal][dE][dK]-NH2 (disulfide 1-7 (inferred); also: homodimer via DIG linker) [SEQ ID NO 29]	< 10	> 10	
Ac-[Pen][NMeR]SDTL[Pen]W[dW][dK]-NH2 (disulfide 1-7 (inferred); also: dimer via DIG) [SEQ ID NO 110]		> 10	
Ac-[Pen][NMeR]SDTL[Pen][1Nal][dF][dK]-NH2 (disulfide 1-7 (inferred); also: dimer via DIG) [SEQ ID NO 111]		> 100	
Ac-[Pen][NMeR]SDTL[Pen][2Nal]Y[dK]-NH2 (disulfide 1-7 (inferred); also: homodimer via DIG) [SEQ ID NO 23]		≤ 10	> 100
Ac-[Pen][NMeR]SDTL[Pen][d1Nal]E[dK]-NH2 (disulfide 1-7; SMILES CC(=O)N[C@@H]1C(=O)N(C)[C@@H](CCCNC(=N)N)C(=O)N[C@@H](CO)C(=O)N[C@@H](CC(=O)O)C(=O)N[C@@H]([C@@H](C)O)C(=O)N[C@@H](CC(C)C)C(=O)N[C@H](C(=O)N[C@H](Cc2cccc3ccccc23)C(=O)N[C@@H](CCC(=O)O)C(=O)N[C@H](CCCCN)C(N)=O)C(C)(C)SSC1(C)C) [SEQ ID NO 10]	> 10		
Ac-[Pen][NMeR]SDTL[Pen][2Nal][dK]-NH2 (disulfide 1-7; SMILES CC(=O)N[C@@H]1C(=O)N(C)[C@@H](CCCNC(=N)N)C(=O)N[C@@H](CO)C(=O)N[C@@H](CC(=O)O)C(=O)N[C@@H]([C@@H](C)O)C(=O)N[C@@H](CC(C)C)C(=O)N[C@H](C(=O)N[C@@H](Cc2ccc3ccccc3c2)C(=O)N[C@H](CCCCN)C(N)=O)C(C)(C)SSC1(C)C) [SEQ ID NO 88]	> 10		
Ac-[Pen][NMeR]SDTL[Pen][Bip][dE][dK]-NH2 (disulfide 1-7 (inferred); also: dimer via DIG) [SEQ ID NO 108]		> 10	
[Pen][NMeR]SDTL[Pen][2Nal]E (disulfide 1-7 (inferred); not fully specified (bridges); printed as Cyclo-[Pen-(N-Me-R)-S-D-T-L-Pen-(2-Nal)-E], disulfide) [SEQ ID NO 143]	250	> 10000	
Ac-[Pen][NMeR]SDTL[Pen][1Nal][dR][dK]-NH2 (disulfide 1-7 (inferred); also: homodimer via DIG) [SEQ ID NO 114]		> 100	
Ac-[Pen][NMeR]SDTL[Pen][d2Nal]E[dK]-NH2 (disulfide 1-7; SMILES CC(=O)N[C@@H]1C(=O)N(C)[C@@H](CCCNC(=N)N)C(=O)N[C@@H](CO)C(=O)N[C@@H](CC(=O)O)C(=O)N[C@@H]([C@@H](C)O)C(=O)N[C@@H](CC(C)C)C(=O)N[C@H](C(=O)N[C@H](Cc2ccc3ccccc3c2)C(=O)N[C@@H](CCC(=O)O)C(=O)N[C@H](CCCCN)C(N)=O)C(C)(C)SSC1(C)C) [SEQ ID NO 11]	> 25		
Ac-[Pen][NMeR]SDTL[Pen][1Nal][dH][dK]-NH2 (disulfide 1-7 (inferred); also: homodimer via DIG) [SEQ ID NO 112]		> 50	
